Laboratory results as given in patent US20150018409A1, “CHIMERIC POLYPEPTIDES AND THEIR USE” (ADRIACELL S.P.A., priority 2003, published 2015).

Key:
[1] = tested on: p53 positive or negative cells; assay: Cell cycle response to DSB's by FACS in p53 positive or negative cells; format: cell-based
Description: The cell cycle response to DSB's induced by […] treatment were analysed in p53 positive or negative cells. […] Incubation for 36 hours of the cell lines mutated for ATM (AT-5) with […] results in a transient retardation of the cell cycle, as was determined by a DNA content FACS analysis. […] A single addition of […] for 60 minutes to the AT-5 cells was sufficient to induce cell cycle stop after 24 hours (FIG. 8A) and finally leads to cell death, obtained from not correctly ligated DNA, and consequently, the clonogenic activity after a single treatment with […] for 60 minutes was below 0.02% for AT-5 cells. […] In addition, the cells were incubated with adriamycin as a control.

[2] = tested on: XR-1 (XRCC4−/−) cells; settings: single addition of SCPVUTAT
Description: Clonogenic assay of CHO cells that were mutated for proteins involved in the NHEJ repair-pathway treated with […]. The cell lines used are AA8 (parental line), V3 (DNA-PCCS^(−/−)), xrss5 (KU80^(−/−)) and XR-1 (XRCC4^(−/−)), HIS P1.13-11 (KU70^(−/−)) and the corresponding parental cell line CHO-K1. Various dilutions of the CHO cells containing the NHEJ mutations as indicated were treated for 24 hours with […] (25 nM, grey bars; 100 nM, black bars) or not treated (white bars); the cells were washed and then grown for 7-10 days, stained with GIEMSA and colonies were counted.
These cell lines were analysed in the nuclease activity assays with […] in vivo and compared to the parental cell lines as indicated. […] Seven to ten days after addition, cell growth was analysed by staining with GIEMSA-blue and quantification of diverse cell-concentrations. […] In analogy, cell growth was quantified after a single treatment with […] for 12 hours (10 nM, grey bars; 75 nM, black bars; not treated, white bars). […] The multiwell-microtiter-plates (for an example see FIG. 13A) were scanned using the VersaDOC® (BioRad) imaging system and growth was automatically quantified with the software package Quantify One® for the analysis of the microtiter-plates (microtiter-plates scanning software).

[3] = tested on: U2OS cells; assay: FACS analysis of DNA content / cell cycle distribution; format: cell-based, human; settings: for cells in G2 phase: control 20%
Description: The distribution of the various phases of the cell cycle of the protein transduced cells was analysed by FACS analysis. Distribution of the DNA content of the cell populations was detected. 2n represents a diploid DNA equivalent (non replicated; G1 phase), 4n represents the tetraploid DNA equivalent (replicated; G2/M phase). For the FACS analysis the cells were separated employing the DDM mode that allows to estimate DNA content of a single cell. U2OS cells were grown for 24 hours (upper row) or 48 hours (lower row) in the presence of increasing amounts of […] (10 nM, 50 nM, 100 nM) as indicated and with only one addition of proteins; non treated cells (control); cells treated with a nuclease impaired derivative of […] (SC34, 100 nM). All the histograms shown represent a measure of DNA content relative to the cell numbers as indicated only on the upper right panel.
U2OS cells were incubated with […] (10 nM, panel B), or with H2O2 (10 μM, panelC), or both ([…], 10 nM; H2O2, 10 μM; panel D), or with no agent as a control (panel A). Further treatment cells were analysed in FACS for DNA content; the percentage of the various cell cycle phases are indicated at the bottoms of the individual histograms.
Finally, to confirm that the DSB's that are produced in vivo also induce perturbations in the cell cycle, DNA content in the various phases of the cell cycle was analysed by Fluorescence Activated Cell Sorting (FACS) after transduction of the proteins of the invention. After the treatment with diverse proteins at various concentrations and during different timepoints, the cells were fixed in 70% ethanol, treated with RNAse A and stained with propidium […].
The FACS analysis was done using a FACSCalibur™ (Becton Dickinson) apparatus. The obtained data were evaluated with the CellQuest™ software program package. At least 3×10^4 single events for every sample were analysed in the DDM mode. The statistic analysis of the DNA content distribution during the cell cycle was done with the MODFIT LT™ software program package. A 2N diploid DNA content correspond to cells in the G1 phase of the cell cycle, 4N represents a relative tetraploid DNA content and corresponds to G2 and/or M phase of the cell cycle. An intermediate DNA content represents S phase corresponding to a population actively replicating DNA during the cell cycle and a content that is below diploid 2N represents cells in apoptosis.
U2OS cells were incubated with 10 nM […] and with 10 μM H2O2 alone or in combination ant the cell cycle profile was analysed by FACS.

[4] = tested on: U2OS osteosarcoma cells and IMR90 primary fibroblasts; assay: Protein transduction of the chimeric proteins (immunoblot and immunofluorescence with PvuII antibody); format: cell-based, human
Description: For a comparison aliquots of the supernatants of the cell culture taken before extract preparation were included in the analysis (upper panel, SUPERNATANT).
In addition DNA costaining was obtained with propidium J after RNAse A digest (red, upper panel).
The transduction capacity of the chimeric proteins was assayed in U2OS osteosarcoma cells and in the IMR90 primary fibroblasts cells. The cells were grown in DMEM containing 10% FCS and treated with the proteins of the invention in the same medium, in general in the presence of antibiotics. After 10 minutes of incubation of the cells with increasing quantities of the fusion protein […] (1, 10, 50, 100, 200 nM) and with the protein SCPVU (single chain PvuII without TAT) and SC34 as a control (prepared as described for […] except that the enzyme PvuII contains a mutant in position 34) cell extracts were prepared, separated on SDS-PAGE and assayed by immuno-blot analysis with a monospecific antibody to PvuII. Further, uptake was assayed after 30 min of incubation by immuno-fluorescence analysis using PvuII specific antibodies and nuclear costaining with propidium iodide.

[5] = tested on: HCT116 cells (hMLH1 mutated); assay: Clonogenic assay of mismatch repair defective cells; format: cell-based, human; settings: similar assays
Description: These cells were plated into multiwell-microtiter-plates at different concentrations and treated with [sequence] as indicated and stained with GIEMSA-blu. The multiwell-microtiter-plates (for an example see FIG. 13A) were scanned using the VersaDOC® (BioRad) imaging system and growth was automatically quantified with the software package Quantify One® for the analysis of the microtiter-plates (microtiter-plates scanning software).

B1: SCPVUTAT: single chain PvuII endonuclease (aa 1-157, GSGG linker, aa 2-157) fused to HIV Tat peptide and six histidine tag; SEQ ID NO:2 (protein, listed as Proteus vulgaris)
chain: MSHPDLNKLLELWPHIQEYQDLALKHGINDIFQDNGGKLLQVLLITGLTVLPGREGNDAVDNAGQEYELKSINIDLTKGFSTHHHMNPVIIAKYRQVPWIFAIYRGIAIEAIYRLEPKDLEFYYDKWERKWYSDGHKDINNPKIPVKYVMEHGTKIYGSGGSHPDLNKLLELWPHIQEYQDLALKHGINDIFQDNGGKLLQVLLITGLTVLPGREGNDAVDNAGQEYELKSINIDLTKGFSTHHHMNPVIIAKYRQVPWIFAIYRGIAIEAIYRLEPKDLEFYYDKWERKWYSDGHKDINNPKIPVKYVMEHGTKIYGSYGRKKRRQRRRGGSHHHHHH
cell cycle response ([1]; cells negative for p53): do not exhibit arrest characteristics of the cell cycle | cell cycle response ([1]; cells positive for p53): cell cycle arrest behaviour in G1 and G2 with low S-phase values | sensitivity in clonogenic assay [2]: hypersensitive to blunt end DSB's | cells in G2 phase ([3]; 10 nM SCPVUTAT alone): 28% | cells in G2 phase ([3]; 10 nM SCPVUTAT in combination with 10 μM H2O2): 45% | change of cell cycle distribution (DNA content) ([3]; 10 nM, incubation for 24 hours): increase in the teraploid population | import / enrichment in the cells ([4]; 1-200 nM SCPVUTAT, controls 200 nM, 10 min incubation, immunoblot with PvuII antibody): enriched in the cells and in particular in the nucleus | uptake, share of the cells analysed ([4]; protein added to culture medium (DMEM, 10% FCS), immunoblot after 10 min, immunofluorescence after 30 min): ~100% | sensitivity in clonogenic assay [5]: do not show any increase in sensibility
